From patent US20110028538

System: TR4 (Nr2c2), endogenous (Mus musculus)
Settings: ChIP with anti-TR4 in RAW264.7 cells versus IgG

## CD36 promoter region (ChIP amplicon)
  binding signal: > 4 fold
